Here are results for 13 molecules from US20240209076A1 (KODIAK SCIENCES, published 2024).

Substitutions are numbered along the chain they refer to. Names may count otherwise.

First the molecules themselves.
B1: anti-IL-6 antibody, heavy chain T65G, G66D / light chain M32L, M50D, N52S, M88Q (antibody, IgG1, V domains shown)
VH: EVQLVESGGGLVQPGGSLRLSCAASGFTFSPFAMSWVRQAPGKGLEWVAKISPGGSWTYYSDTVGDRFTFSLDTSKSTAYLQMNSLRAEDTAVYYCARQLWGYYALDIWGQGTLVTVSS
VL: DIQLTQSPSSLSASVGDRVTITCSASISVSYLYWYQQKPGKAPKLLIYDDSSLASGVPSRFSGSGSGTDFTLTISSLQPEDFATYYCQQWSGYPYTFGQGTKVEIK
notes: Full IgG1 (Expi293); VL = variant III
B2: anti-IL-6 antibody, heavy chain T65H, G66D / light chain M32L, M50D, N52S, M88Q (antibody, IgG1, V domains shown)
VH: B1 VH with G65H
VL: B1 VL
notes: as for B1
B3: anti-IL-6 antibody, heavy chain T65P, G66D / light chain M32L, M50D, N52S, M88Q (antibody, IgG1, V domains shown)
VH: B1 VH with G65P
VL: B1 VL
notes: as for B1
B4: anti-IL-6 antibody, heavy chain T65K, G66D / light chain M32L, M50D, N52S, M88Q (antibody, IgG1, V domains shown)
VH: B1 VH with G65K
VL: B1 VL
notes: as for B1
B5: anti-IL-6 antibody, heavy chain T65V, G66D / light chain M32L, M50D, N52S, M88Q (antibody, IgG1, V domains shown)
VH: B1 VH with G65V
VL: B1 VL
notes: as for B1
B6: anti-IL-6 antibody, heavy chain T65Y, G66D / light chain M32L, M50D, N52S, M88Q (antibody, IgG1, V domains shown)
VH: B1 VH with G65Y
VL: B1 VL
notes: as for B1
B7: anti-IL-6 antibody, heavy chain T65R, G66D / light chain M32L, M50D, N52S, M88Q (antibody, IgG1, V domains shown)
VH: B1 VH with G65R
VL: B1 VL
notes: as for B1
B8: anti-IL-6 antibody, heavy chain T65W, G66D / light chain M32L, M50D, N52S, M88Q (antibody, IgG1, V domains shown)
VH: B1 VH with G65W
VL: B1 VL
notes: as for B1
B9: anti-IL-6 antibody, heavy chain T65L, G66D / light chain M32L, M50D, N52S, M88Q (antibody, IgG1, V domains shown)
VH: B1 VH with G65L
VL: B1 VL
notes: as for B1
B10: anti-IL-6 antibody, heavy chain T65S, G66D / light chain M32L, M50D, N52S, M88Q (antibody, IgG1, V domains shown)
VH: B1 VH with G65S
VL: B1 VL
notes: as for B1
B11: anti-IL-6 antibody, heavy chain I51A, G66D / light chain M32L, M50D, N52S, M88Q (antibody, human IgG1, V domains shown)
VH: B1 VH with I51A, G65T
VL: B1 VL
notes: Human IgG1
B12: anti-IL-6 antibody, heavy chain I51D, G66D / light chain M32L, M50D, N52S, M88Q (antibody, human IgG1, V domains shown)
VH: B1 VH with I51D, G65T
VL: B1 VL
notes: Human IgG1
B13: anti-IL-6 antibody, heavy chain I51E, G66D / light chain M32L, M50D, N52S, M88Q (antibody, human IgG1, V domains shown)
VH: B1 VH with I51E, G65T
VL: B1 VL
notes: Human IgG1

The first experiment deals with T1, human IL-6 (human, UniProt P05231 30-212).
T1 construct: IL-6 flowed over captured antibodies
Briefly: SPR Biacore, supernatant Ab on Protein A chip, 37 C. As to the method:
(§1) Antibodies were captured on a Protein A chip (GE) by injecting 1:20 cell supernatant dilutions at 10 μL/min for 60 seconds. […] The sensor chip was regenerated by a 60 seconds injection of 10 mM Glycine pH 1.7 at the flow rate of 50 μL/min. […] For this setup, 1 μg/mL of purified antibody was injected over a Protein A chip at 10 μL/min for 25 seconds. […] The sensor chip was regenerated by a 60 seconds injection of 10 mM Glycine pH 1.7 at flow rate of 50 μL/min. Data analysis for supernatant and purified samples were performed using BIAevaluation software (GE). All sensorgrams were double reference subtracted and fit using a 1:1 Langmuir binding model.
For orientation: Surface plasmon resonance follows binding to a sensor surface in real time, without labels.
T1 sequence (P05231 30-212 limits assumed): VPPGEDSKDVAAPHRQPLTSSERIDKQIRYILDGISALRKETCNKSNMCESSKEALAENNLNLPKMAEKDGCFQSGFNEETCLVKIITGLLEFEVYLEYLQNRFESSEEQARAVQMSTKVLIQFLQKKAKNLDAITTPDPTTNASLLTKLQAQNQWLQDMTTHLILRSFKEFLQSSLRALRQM
The term Kd denotes the free concentration of one partner at which half of the binding sites on the other are occupied at equilibrium, for simple one-to-one binding. Lower therefore signals a tighter complex. In general, koff refers to the rate constant with which the complex falls apart. Usually kon stands for the rate constant with which the complex forms. A low value points to slower complex formation. Consider B1, for which the Kd is 0.311 nM, the koff was 0.000477 s⁻¹ and the kon turned out to be 1.53e+06 M⁻¹ s⁻¹.
In the case of B2, the dissociation constant Kd was determined as 0.297 nM, the off-rate (koff) amounted to 0.000423 s⁻¹ and the kon worked out at 1.43e+06 M⁻¹ s⁻¹.
The molecule B3 registered a Kd of 0.601 nM, a koff of 0.00108 s⁻¹ and a kon of 1.79e+06 M⁻¹ s⁻¹.
The corresponding values for B4 are 0.356 nM, 0.000579 s⁻¹ and 1.63e+06 M⁻¹ s⁻¹.
The corresponding values for B5 are 0.281 nM, 0.000551 s⁻¹ and 1.96e+06 M⁻¹ s⁻¹.
B6 registered a Kd of 0.237 nM, a koff of 0.000367 s⁻¹ and an on-rate (kon) of 1.55e+06 M⁻¹ s⁻¹.
B7 had a Kd of 0.327 nM, a koff of 0.000532 s⁻¹ and a kon of 1.63e+06 M⁻¹ s⁻¹.
Molecule B8 displayed a Kd of 0.322 nM, a koff of 0.000384 s⁻¹ and a kon of 1.19e+06 M⁻¹ s⁻¹.
On the same counts, the results for B9 are 0.293 nM, 0.000446 s⁻¹ and 1.53e+06 M⁻¹ s⁻¹.
In turn, B10 showed a Kd of 0.31 nM, a dissociation rate constant (koff) of 0.000441 s⁻¹ and an on-rate (kon) of 1.42e+06 M⁻¹ s⁻¹.

A further experiment concerns the target human IL-6 (human, UniProt P05231 30-212). In words: SPR (Biacore), supernatant antibody on Protein A chip, IL-6 flowed, 37 C. On the procedure:
as §1
Target sequence in this assay (P05231 30-212 limits assumed): as above
On to B11, for which the Kd was determined as 0.559 nM, the koff came out at 0.000899 s⁻¹ and the kon stood at 1.61e+06 M⁻¹ s⁻¹.
Molecule B12 had a Kd of 9.58 nM, a koff of 0.00799 s⁻¹ and a kon of 834000 M⁻¹ s⁻¹.
Turning to B13, the Kd is 2.14 nM, the koff came to 0.00196 s⁻¹ and the kon stood at 914000 M⁻¹ s⁻¹.
